Test results taken from the supplement of paper PMC9170038.

The sequences below were run on MS2 coat protein (assay: apparent KD of MS2 coat protein; higher = weaker reporter binding). Details: Eterna round: R107; input ligand: theophylline 2 mM.
How it was run: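 Normalised binding curves from single clusters were fitted, and the median fit for each design is given as apparent KD. The clusters held designed RNA switches transcribed on-chip from Illumina sequencing clusters. These were titrated with SNAP-549-labelled MS2 coat protein (twofold steps from 0.7 or 1.5 nM to 3 µM, 0.8–1.5 h to 10–20 min per step) in 100 mM Tris-HCl pH 7.5, 80 mM KCl, 4 mM MgCl2, without or with constant ligand.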

First: CUACAUUUGUAGAAACCGGUCAACAUUAUUCGAGGACCGGUACGGCCGCCACUCGUAUAUUUUUAUACAUGAGGAUCACCCAUGU [Tryptophan A 7]
Second: AUGGUCGACGAUCUGCGAAAAGCAGAUCGACGAGGACCGGUACGGCCGCCACUCGUGUUUAUUUAACAUGAGGAUCACCCAUGUA [#14Tryptophan A Same State]
The “apparent KD of MS2 coat protein” value of the first is 11-fold lower: 13 nM for the first, 142 nM for the second.

Compared with “GUCUCUGAGAGAAGGAGCGUGAAGACAUGAGGAUCACCCAUGUAGAGGCGCCGACGGCGUUCGCAGGUAGGUCGCUCUCAGAGAC [#1 Same State - Arginine B Attempt #19 (HarryS)]”, “GGCACAUAGUCGGCCGCCACUAGGCUGUAGUGGGAGGACAUGAGGAUCACCCAUGUAUUUGGUACUAGGACCGGGACUAUGUGCC [Lion]” is 16-fold higher in “apparent KD of MS2 coat protein” value: 17.1 nM for the first, 274 nM for the second.

Compared with “CUCAUCCACGCGGCCGCCACUAUUUUUAGGUGUGGGUGUGACGUAUUACAUGAGGAUCACCCAUGUAGGACCGGGCGUGGAUGAG [Walrus]”, “UGGCGAGAAGGAAGGAGCGUCAGCUGAGUCACAUGAGGAUCACCCAUGUAGCACAUAGUGUGACAGGUAGGUCGCCUUCUGCCCU [SS-ArgB17]” is 45-fold lower in “apparent KD of MS2 coat protein” value: 491 nM for the first, 10.8 nM for the second.

First: UAGACGGCCGGAAGGAGCGGUACAUGAGGAUCACCCAUGUACCUCUGGGCAUCCGUAGUGUGCCAGGUAGGUCGCCGGUUGCGGG [Tebecela]
Second: AGUCUUAUAGGAAGGAGCGCAUACUUCACAUGAGGAUCACCCAUGUCAAGACGUGAGUCAAUGCAGGUAGGUCGCCUAACUAAGA [Same State - Arginine B (Freestyle 12)]
The “apparent KD of MS2 coat protein” value of the first is 1.6-fold lower: 11.4 nM for the first, 17.7 nM for the second.

First: GGACUAACCAGAAGGAGCGGCGCGCAGAAACUGCAAAUUCCUCCGCACGAGGAUCACCCGUGUCAGGUAGGUCGCUGGUUAGUCG [ArgBX 28]
Second: CGGUAUGGGACGGCCGCCACUAUUAUGUAACAAAAUAAACAUGAGGAUCACCCAUGUACAUGGGAUAGGACCGGGUCCUAUAGCG [#23 Same State - Tryptophan B]
The “apparent KD of MS2 coat protein” value of the first is 8-fold lower: 16.6 nM for the first, 133 nM for the second.

Same assay, conditions: Eterna round: R107; input ligand: tryptophan 2.4 mM

First: GCACAAGAUGGAAGGAGCGCUGGUAGGUGACACAUGAGGAUCACCCAUGUGCUCCUUGCCGAGCAGGUAGGUCGCCAUCUUGUGC [SSAB NP+V+V2 #7]
Second: UGCCUAGACGUGGAUUACCCGUGUACCGAAGGAGCGCCCGAAAGGGCAGGUAGGUCGCGGAGGACAUGAGGAUCACCCAUGUUUA
The “apparent KD of MS2 coat protein” value of the first is 6.9-fold lower: 25.5 nM for the first, 175 nM for the second.

Compared with “ACUUUGUCGGGUGAUACCAGCCUCGGCACAUCUCGUGCCGAACAUGAGGAUCACCCAUGUGGCCCUUGGCAGCACAUGACAACUC [Quceanteri]”, “AUAACUGUAAUAAACCGCAGGCUAGUGGAAGGAGCGCGGAAUAACGCAGGUAGGUCGCCACAAACUUGAGGAUCACCCAGGUGGC [SSAA NP+V+V2 #7 Diff Apt]” is 13-fold lower in “apparent KD of MS2 coat protein” value: 608 nM for the first, 48.6 nM for the second.

Compared with “AAUAACAUGAGGAUCACCCAUGUAAAAGAUACCAGAGUGAUGAUCCUCCCUUGGCAGCUUAAAACGCUAUUGGAAACAAUAGCGA [Mat - Same State Theophlline A - Mod of Eli - D5]”, “AAAAUCCUACCUGAGGAUCACCCUGGUGAAGGAGCGCCCGAAAGGGCAGGUAGGUCGCACCUGAGGAUCACCCUGGUAAACCUAA [ArgEX 24 #DoubleMS2 #OpenEnded]” is 1.6-fold lower in “apparent KD of MS2 coat protein” value: 74 nM for the first, 46.3 nM for the second.

“CGGGUUCGGGCGGCCGCCACUAUGAUUAGGUGUGGGUGUGUUGUGUUACAUGAGGAUCACCCAUGUAGGACCGGGUUUGGGCUUG [Sturgeon]” and “UGUAACAUGAGGAUCACCCAUGUAAGUGAUACCAGAUAAGUAGUAGUCCCUUGGCAGCAUAUUGGGAAAGUGUAUAGUCUAUAUU [Same State - Theophylline A (Freestyle 3)]” are within 1.5-fold of each other in “apparent KD of MS2 coat protein” value: 57.4 nM for the first, 51.1 nM for the second.

First: CUAUAAGUAGCGGCCGCCACUUACUCAUGAGGUAACAACAUGAGGAUCACCCAUGUUUGAGGAUCAAGGACCGGGCUAUUUAUAG [AstrosSSTryB#9]
Second: GGCACAUAGUCGGCCGCCACUAGUGGGAAAUGGGAGAACAUGAGGAUCACCCAUGUUGCGUAGCCUAGGACCGGGACUAUGUGCC [Hippopotamus]
The “apparent KD of MS2 coat protein” value of the first is 2-fold lower: 17.6 nM for the first, 35 nM for the second.

Compared with “ACAUGAGGAUCACCCAUGUUCCUCAUUGAUACCAGUGAAAGAAGACGCCCUUGGCAGCGAGAAGAAGAAGAAGAAGUUUUUUUUU [6.B]”, “UCGGGCAGAGCGGCCGCCACUGUUUGGCAUGCGGAUGAAGGAACAUGAGGAUCACCCAUGUAGAUUAGGACCGGGCUUUCGGAGA [cctchmullin]” is 41-fold lower in “apparent KD of MS2 coat protein” value: 917 nM for the first, 22.2 nM for the second.

Going from “UGUAUGUGAUCUGAUACCAGCUAGCGGAAACGCAGCUUGAGGAUCACCCAAGUGGAAAUAAGCCCUUGGCAGCAGAUCGCAUACU [Denovo 6 #StaticStem #AlternativeMS2]” to “AUAGUUAUCAGAAGGAGCGUCAUUAACAUGAGGAUCACCCAUGUAACAUUGAAUUCGAUGAGACAGGUAGGUCGCUGAAUAUUAA [SS-ArgB28]”, the “apparent KD of MS2 coat protein” value falls from 309 nM to 36 nM (8.6-fold).

Compared with “UAUGUGAUAGUCGUACUCUCACACUGAGAAGGAGCGCGAUAGUUCGCAGGUAGGUCGCUCAGUUAUACAUGAGGAUCACCCAUGU [Isrice]”, “ACCUCACUCUCUGAUACCAGCUAACAACAUGAGGAUCACCCAUGUCAGACUUGUAUUGAUAGCCCUUGGCAGCAGAGGUAACUGC [#16 Exclusion-TheophyllineB]” is 1.6-fold lower in “apparent KD of MS2 coat protein” value: 26.4 nM for the first, 16.8 nM for the second.

First: AAACGCCACGGAAGGAGCGACAUGAGGAUCACCCAUGUAGACGUGGCGGAUGCACCCUCCUGUCAGGUAGGUCGCCGUGCGCCAA [Engebite]
Second: GUUGGUUUGCGAAGGAGCGGGUAUGUUGUCUACUGGAUCCUAACAUGAGGAUCACCCAUGUCCCAGGUAGGUCGCGCGGGCUUUG [12.aB]
The “apparent KD of MS2 coat protein” value of the first is 3.4-fold lower: 11.2 nM for the first, 38.2 nM for the second.

Going from “GGGCCUGUAGGCAGGCCCACAGCGGGUGAUACCAGCAAUAAAACUUGCCCUUGGCAGCACACAGCUACAUGAGGAUCACCCAUGU [Ismaorxe]” to “GUCUCUGAGAGAAGGAGCGUGAAGACAUGAGGAUCACCCAUGUAGAGGCGCCGACGGCGUUCGCAGGUAGGUCGCUCUCAGAGAC [#1 Same State - Arginine B Attempt #19 (HarryS)]”, the “apparent KD of MS2 coat protein” value falls from 69.7 nM to 23.7 nM (2.9-fold).

Going from “GGCACAUAGUCGGCCGCCACUAGGCUGUAGUGGGAGGACAUGAGGAUCACCCAUGUAUUUGGUACUAGGACCGGGACUAUGUGCC [Lion]” to “UGGCGAGAAGGAAGGAGCGUCAGCUGAGUCACAUGAGGAUCACCCAUGUAGCACAUAGUGUGACAGGUAGGUCGCCUUCUGCCCU [SS-ArgB17]”, the “apparent KD of MS2 coat protein” value falls from 258 nM to 9.41 nM (27-fold).

“UAGACGGCCGGAAGGAGCGGUACAUGAGGAUCACCCAUGUACCUCUGGGCAUCCGUAGUGUGCCAGGUAGGUCGCCGGUUGCGGG [Tebecela]” and “AGAUCGCUGACCGCGGGAGAUGCGCAGGAUACCAGCCUAAUGUCCGGCCCUUGGCAGCCUGUAACAUGAGGAUCACCCAUGUGAA [theeternabot_exclusion_MS2_Theo_A_29]” are within 1.5-fold of each other in “apparent KD of MS2 coat protein” value: 13.7 nM for the first, 18.1 nM for the second.

“AGUCUUAUAGGAAGGAGCGCAUACUUCACAUGAGGAUCACCCAUGUCAAGACGUGAGUCAAUGCAGGUAGGUCGCCUAACUAAGA [Same State - Arginine B (Freestyle 12)]” and “GGACUAACCAGAAGGAGCGGCGCGCAGAAACUGCAAAUUCCUCCGCACGAGGAUCACCCGUGUCAGGUAGGUCGCUGGUUAGUCG [ArgBX 28]” are within 1.5-fold of each other in “apparent KD of MS2 coat protein” value: 14.6 nM for the first, 17.5 nM for the second.

“AAGGCUACGACCGAUACCAGUAGACGGCAUUCGUAGGAGAACAUGAGGAUCACCCAUGUCUACCCUUGGCAGCGGAAAAUACACU [theeternabot_exclusion_MS2_Theo_B_16]” and “CGGUAUGGGACGGCCGCCACUAUUAUGUAACAAAAUAAACAUGAGGAUCACCCAUGUACAUGGGAUAGGACCGGGUCCUAUAGCG [#23 Same State - Tryptophan B]” are within 1.5-fold of each other in “apparent KD of MS2 coat protein” value: 12.3 nM for the first, 17.7 nM for the second.

With “AAUAACAUGAGGAUCACCCAUGUAAAAGAUACCAGAUGCAUGAUGAUCCCUUGGCAGCUUAAACGCGAUUGGAAACAAUCGCGAA [Mat - Same State Theophlline A - Mod of Eli - D11]” the “apparent KD of MS2 coat protein” value was 38.3 nM.
